Publication doi:10.1101/2025.06.09.658552
“And” between values parts separate entries of the source, which are not always exact repeats. Identical values can stand only once. Like-named read-outs stand apart in the source and are kept apart here.

Columns and labels:
[1] = target: alpha/beta-tubulin (Saccharomyces cerevisiae) (UniProt P09733); settings: cited from earlier work
[2] = target: alpha/beta-tubulin (Saccharomyces cerevisiae) (UniProt P09733); settings: cited from earlier work; remark: listed apart in the source
[3] = target: biotinylated polymerization-blocked yeast αβ-tubulin, LR1 (β: T175R,V179R) (yeast) (UniProt P09733); assay: BLI; biotinylated polymerization-blocked tubulin immobilised on streptavidin (SA) biosensors, OctetR8; TOG2 2.3 to 200 nM in solution; 90 mM PIPES, 10 mM NaCl, 1 mM MgCl2, 1 mM EGTA, 1 mM GTP, 0.1% BSA, 0.005% triton X-100; association 300 s, dissociation 300 s; 1:1 model, global kinetic fit and steady-state amplitudes

Molecule: Stu2 TOG2 (from UniProt P46675)
- Kd [1]: 160 nM

Molecule: Stu2 TOG1 (from UniProt P46675)
- Kd [2]: 70 nM

B1: Stu2-TOG2 (318–560) (domain or fragment)
chain: MLPEETILDKLPKDFQERITSSKWKDRVEALEEFWDSVLSQTKKLKSTSQNYSNLLGIYGHIIQKDANIQAVALAAQSVELICDKLKTPGFSKDYVSLVFTPLLDRTKEKKPSVIEAIRKALLTICKYYDPLASSGRNEDMLKDILEHMKHKTPQIRMECTQLFNASMKEEKDGYSTLQRYLKDEVVPIVIQIVNDTQPAIRTIGFESFAILIKIFGMNTFVKTLEHLDNLKRKKIEETVKTL
- Kd [3]: 8.9 nM and 9.6 nM
- koff [3]: 0.03 s⁻¹
- kon [3]: 3.2e+06 M⁻¹ s⁻¹
